Assays:
[1] = target: human CD40 protein expressed on cells (human) (UniProt P25942); test: flow cytometry on CHO-S cells transiently expressing human CD40; AF647 anti-human IgG (H+L) secondary; GeoMean RL1-H
[2] = target: cynomolgus CD40 protein expressed on CHO-S cells (cynomolgus) (UniProt G7PG38); test: flow cytometry on CHO-S cells transiently expressing cynomolgus CD40; AF647 anti-human IgG (H+L) secondary; GeoMean RL1-H
Chain of cynomolgus CD40 protein expressed on CHO-S cells (cynomolgus) (G7PG38 entry or part of it): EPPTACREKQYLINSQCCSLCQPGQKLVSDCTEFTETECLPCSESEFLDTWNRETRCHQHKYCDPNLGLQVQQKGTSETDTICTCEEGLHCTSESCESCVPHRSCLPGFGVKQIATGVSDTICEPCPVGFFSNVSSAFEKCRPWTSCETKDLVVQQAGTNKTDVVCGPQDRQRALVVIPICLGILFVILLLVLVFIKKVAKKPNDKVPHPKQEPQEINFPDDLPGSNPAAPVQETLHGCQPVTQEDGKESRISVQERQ

Chain of human CD40 protein expressed on cells (human) (P25942 21-277 limits assumed): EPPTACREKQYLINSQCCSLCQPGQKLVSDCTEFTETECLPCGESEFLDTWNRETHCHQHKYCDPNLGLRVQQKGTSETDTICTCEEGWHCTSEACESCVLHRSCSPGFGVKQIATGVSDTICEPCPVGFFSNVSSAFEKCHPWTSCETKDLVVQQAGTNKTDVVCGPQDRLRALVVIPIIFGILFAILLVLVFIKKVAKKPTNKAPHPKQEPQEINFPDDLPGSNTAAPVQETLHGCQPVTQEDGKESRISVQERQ

- EC50 (read off the curve) [1]: 0.01 µg/mL
- EC50 (read off the curve) [2]: 0.01 µg/mL
B1: ADC-1013 analogue (antibody, INN chains, looked up, IgG1, V domains shown)
VH: EVQLLESGGGLVQPGGSLRLSCAASGFTFSTYGMHWVRQAPGKGLEWLSYISGGSSYIFYADSVRGRFTISRDNSENALYLQMNSLRAEDTAVYYCARILRGGSGMDLWGQGTLVTVSS
VL: QSVLTQPPSASGTPGQRVTISCTGSSSNIGAGYNVYWYQQLPGTAPKLLIYGNINRPSGVPDRFSGSKSGTSASLAISGLRSEDEADYYCAAWDKSISGLVFGGGTKLTVL

— patent publication US20210214454A1
